Measured values: PMC6684798, “Structural basis for the target specificity of actin histidine methyltransferase SETD3” (Nature Communications, 2019)

Target: T1, SETD3 (Homo sapiens, UniProt Q86TU7)
T1 construct: GST (cleaved yes); made in house; host or cells: Escherichia coli BL21(DE3) CodonPlus
T1 sequence (Q86TU7 1-594): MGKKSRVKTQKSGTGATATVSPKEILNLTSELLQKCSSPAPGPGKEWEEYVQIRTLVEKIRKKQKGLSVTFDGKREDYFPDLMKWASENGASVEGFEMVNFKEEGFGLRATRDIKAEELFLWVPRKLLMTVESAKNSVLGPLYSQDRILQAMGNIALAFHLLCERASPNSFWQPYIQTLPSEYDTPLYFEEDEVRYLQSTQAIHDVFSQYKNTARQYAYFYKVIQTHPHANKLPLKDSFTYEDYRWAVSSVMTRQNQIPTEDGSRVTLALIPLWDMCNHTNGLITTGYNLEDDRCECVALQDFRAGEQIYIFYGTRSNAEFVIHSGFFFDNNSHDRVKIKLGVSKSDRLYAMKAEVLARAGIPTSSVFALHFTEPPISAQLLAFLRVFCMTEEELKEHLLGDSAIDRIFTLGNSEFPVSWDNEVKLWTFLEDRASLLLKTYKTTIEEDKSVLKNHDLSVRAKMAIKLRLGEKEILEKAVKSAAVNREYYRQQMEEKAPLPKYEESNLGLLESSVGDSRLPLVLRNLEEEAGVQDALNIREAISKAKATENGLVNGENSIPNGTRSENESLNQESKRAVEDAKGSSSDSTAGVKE
Experiment: SETD3 activity on K73(66-80) at two temperatures (Supplementary Fig. 3c)
Type: biochemical
Details: overnight, pH 8.0, [E]=15 µM, [SAM]=100 µM, [S]=700 µM
Experimental: Recombinant human SETD3 (pXC2003) was expressed as a GST-fusion[22] in Escherichia coli BL21(DE3) CodonPlus^TM cells (Stratagene). The SETD3 mutants at residue 255 (N255A; pXC2093 and N255V; pXC2094) were generated with Q5 Site-Directed Mutagenesis Kit (New England Biolabs), confirmed by sequencing and the same protocol for expression and purification were followed. Briefly, the purification was conducted in a BIO-RAD NGC^TM system using a three-column chromatography of glutathione-sepharose, HiTrap Q-HP and Superdex 200. The GST tag was removed by PreScisson Protease (purified in-house). The purified SETD3 proteins at a concentration ~25–35 mg/ml were kept at −80 °C in storage buffer for future use [20 mM Tris (pH 8.0), 200 mM NaCl, 5% glycerol, and 0.5 mM tris (2-carboxyethyl) phosphine (TCEP)].
For H73 (residues 66–80), a reaction mixture contained 20 mM Tris/HCl (pH 8.0), 50 mM NaCl, 0.1 mg/ml BSA, 1 mM DTT, 0.18 µM SETD3, 40 µM SAM, and 20 µM H73 peptide, the reaction was performed for 20 min (Supplementary Fig. 3b). For K73 (residues 66–80), a reaction mixture contained 20 mM Tris/HCl (pH 8.0), 50 mM NaCl, 0.1 mg/ml BSA, 1 mM DTT, 15 µM SETD3, 100 µM SAM, and 700 µM K73 peptide, the reaction was performed overnight (Supplementary Fig. 3c). All reactions were terminated by the addition of TFA to 0.1% (v/v). […]
conditions optimized for H73(66-80) (red line): [E]=0.18 µM, [SAM]=40 µM, [S]=20 µM, pH 8.0 at room temperature for indicated reaction time. b, SETD3 activity on H73(66-80) at two difference temperatures under the conditions of [E]=0.18 µM, [SAM]=40 µM, [SH7 3]=20 µM at pH 8. 0 for 20 min reaction. c, SETD3 activity on K73 (66-80 ) at room temperature (~22 °C) and 37 °C under the conditions of increased amounts of [E]=15 µM, [SAM]=100 µM and [S K73]=700 µM at pH 8.0 for overnight reaction. Data represent the mean ± SD of N number of independent determinations (N=2 in panels a and b and N=4 in panel c) performed in duplicate. Source data are provided as a Source Data file. d, A stereo image of omit electron density (Fo -Fc) omitting the side chain of K73 in the active site contoured at 4 s above the mean.
(1 picture or pasted object on this page, not shown here)

With “K73(66–80): K73-containing (H73K) actin peptide, residues 66–80 (TLKYPIEKGIVTNWD; UniProt P60709 66-80, looked up, variant H73K)” the CH3 transferred (37 °C, replicate 1) was 1.773 µM, the CH3 transferred (37 °C, replicate 2) was 2.482 µM and the CH3 transferred (37 °C, replicate 3) was 3.183 µM. The CH3 transferred (37 °C, replicate 4) was 3.325 µM, the CH3 transferred (RT (~22 °C), replicate 1) was 0.6813 µM and the CH3 transferred (RT (~22 °C), replicate 2) was 0.8003 µM. The CH3 transferred (RT (~22 °C), replicate 3) was 0.7535 µM and the CH3 transferred (RT (~22 °C), replicate 4) was 0.7963 µM.
